Legend:
[1] = test system: chromatin accessibility in HILO cells; assay: ATAC-Seq chromatin accessibility in HILOs; format: cell-based, human; settings: sorted GFP+ cells, WNT4 treatment
Text: […] D. Buenrostro et al., 2015, Current Protocols in Molecular Biology, 109:21-29. Reads were aligned by Bowtie to hg19, and peaks were called by HOMER using default settings. Differential peaks and motif analyses from 2 biological duplicates were identified using HOMER essentially as instructed (see, e.g., S. Heinz et al., 2010, J. Mol. Cell, 38:576-589). Detailed methods for HOMER are freely available, e.g., at http://http://homer.salk.edu/homer/. Briefly, the program searches against the target and background sequences for enrichment of known motifs, and returns motifs enriched with a threshold of 1.5-fold change and a p-value of less than 0.05. Promoter regions, defined as 1 kilobase (kB) upstream from the transcription start site, of genes with enhanced chromatin accessibility upon Wnt4 treatment, were interrogated for enriched motifs of 8-16 bp using HOMER motif analysis.

[2] = test system: ERRγ (ESRRG), mitochondrial and insulin gene expression; assay: Quantitative RT-PCR gene expression in hiPSC-derived islet organoids/HILOs; format: cell-based, human; settings: hiPSC-derived islet organoids, MCS or HILOs
Method: hiPSCs were cultured in matrigel-coated plates. Single cell suspensions were prepared using Accutase, washed in PBS, and collected by centrifugation (1000-1300 rpm for 5 min). Cells were re-suspended with 3D Kelco Gel Stem TeSR™ Base Medium in the presence of the ROCK inhibitor (10 μM Y-27632, StemCell) for 5 to 7 days until spheroids reached 50-100 μm diameter. The medium was then replaced with 0.015% Kelco gel containing 0.3% methylcellulose and supplemented with 100 ng/ml human Activin A (R&D Systems), 3 μM CHIR99021 (Axon or Selleckchem) in differentiation medium (S1) for 1 day, and then 100 ng/ml human Activin in differentiation medium (S1) for another 2 days (Stage 1, Definitive Endoderm). Subsequently, the medium was replaced with differentiation medium (S2) with 50 ng/ml FGF7 (R&D Systems) for 2 days, differentiation medium (S3) with 50 ng/ml FGF7, 0.25 μM SANT-1 (Sigma), 1 μM Retinoic Acid (Sigma), 100 nM LDN193189, 10 μM Alk5 inhibitor II and 200 nM of the ß-Amyloid Precursor Protein modulator TPB for 3 days, then 50 ng/ml FGF7, 0.25 μM SANT-1 (Sigma), 1 μM Retinoic Acid (Sigma), 100 nM LDN193189, 10 μM Alk5 inhibitor II and 100 nM of the ß-Amyloid Precursor Protein modulator TPB for 2 days. Subsequently the medium was replaced with differentiation medium (S4) with 0.25 μM SANT-1, 50 nM retinoic acid, 100 nM LDN193189, 10 μM Alk5 inhibitor II, 1 μM T3 for 3 days. Subsequently, the medium was replaced with differentiation medium (S5) with 100 nM LDN193189, 100 nM […] inhibitor XX (GSiXX, Millipore), 10 μM Alk5 inhibitor IL, 1 μM T3 for 7 days. Subsequently, the medium was replaced with differentiation media (S5) with 10 μM Trolox (Calbiochem), 2 μM R428 (Selleckchem), 1 mM N-acetyl cysteine, 10 μM Alk5 inhibitor II, 1 μM T3 for an additional 7 to 20 days. […]
Total RNA was extracted using TRIzol reagent (Invitrogen) and RNeasy KIT (Qiagen). […] Real time quantitative RT-PCR (qPCR) was performed using SYBR Green (Bio-Rad).

B1: WNT4: recombinant human Wnt4 protein (R&D Systems), non-canonical WNT maturation factor (protein, UniProt P56705 23-351, looked up)
Protein Wnt-4: SNWLYLAKLSSVGSISEEETCEKLKGLIQRQVQMCKRNLEVMDSVRRGAQLAIEECQYQFRNRRWNCSTLDSLPVFGKVVTQGTREAAFVYAISSAGVAFAVTRACSSGELEKCGCDRTVHGVSPQGFQWSGCSDNIAYGVAFSQSFVDVRERSKGASSSRALMNLHNNEAGRKAILTHMRVECKCHGVSGSCEVKTCWRAVPPFRQVGHALKEKFDGATEVEPRRVGSSRALVPRNAQFKPHTDEDLVYLEPSPDFCEQDMRSGVLGTRGRTCNKTSKAIDGCELLCCGRGFHTAQVELAERCSCKFHWCCFVKCRQCQRLVELHTCR
genes with both increased chromatin accessibility and induced expression [1]: 123 genes | expression of ERRγ (ESRRG) and mitochondrial genes [2]: dose-dependently increased | expression of ERRγ (ESRRG) and mitochondrial genes ([2]; listed as rhWNT4): induced

— US12637662B2, “Cells, islets, and organoids that evade immune detection and autoimmunity, methods of production and use thereof” (SALK INSTITUTE FOR BIOLOGICAL STUDIES, priority 2018, dated 2026)
